Measurements reported in patent publication US7998940B2, “Aptamers to von Willebrand factor and their use as thrombotic disease therapeutics” (Archemix Corp., priority 2004, dated 2011).
Like-named read-outs stand apart in the source and are kept apart here. Oligonucleotides are written 5' to 3', each unit as a sugar letter and its base; * is a phosphorothioate linkage, no mark a phosphodiester; rarer units and linkages stand in square brackets, end groups in braces. Plain capitals give the bases only. [invdT] = inverted (3'-3') thymidine; d = 2'-deoxy (DNA); m = 2'-O-methyl

B1: Reopro: IIbIIIa antagonist (antibody, chains of the INN, looked up, V domains shown)
VH: EVQLQQSGTVLARPGASVKMSCEASGYTFTNYWMHWVKQRPGQGLEWIGAIYPGNSDTSYIQKFKGKAKLTAVTSTTSVYMELSSLTNEDSAVYYCTLYDGYYVFAYWGQGTLVTVSA
VL: EIVLTQSPVTLSVTPGDSVSLSCRASRDISNNLHWFQQTSHESPRLLIKYASQSMSGIPSRFSGSGSGTDFTLSINSVETEDFGMYFCQQTNSWPYTFGGGTKLEIK
modifications: Fab
notes: IIbIIIa antagonist
B2: AMX238.E9: DNA SELEX 2 aptamer clone (nucleic acid)
DNA: CTACCTACGATCTGACTAGCGTGCAGTGCCCATCTTAGGCCGTGCGGTGCCTCCGTCACGCTTACTCTCATGTAGTTCC
modifications: DNA, backbone not given here
notes: DNA SELEX 2 aptamer clone
B3: AMX238.H5: DNA SELEX 2 aptamer clone (nucleic acid)
DNA: CTACCTACGATCTGACTAGCGTGCAGTGCCTATTCTAGGCCGTGCGGTGCCTCCGTCACGCTTACTCTCATGTAGTTCC
modifications: DNA, backbone not given here
notes: DNA SELEX 2 aptamer clone

Legend:
[1] = system: full length human vWF binding to lyophilized platelets; assay: Full length human von Willebrand Factor platelet binding assay (FACS); type: cell-based; settings: 5 nM full length human vWF, lyophilized platelets, botrocetin
How it was run: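 Aptamer titrations (0.1–1000 nM) pre-incubated with 5 nM full-length human vWF, then added to lyophilized platelets plus botrocetin for 15 min at 37 °C in PBS/0.5% BSA. Bound vWF detected by anti-vWF then FITC secondary antibody via flow cytometry MFI; % inhibition versus no-aptamer binding fitted for IC50.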

vWF = vWF (Homo sapiens, UniProt P04275, D1472H/Q852R/T1381A); assay: cellular / biological vWF dependent assays of Example 3, not specified further; type: cell-based; settings: in words; FACS, BIPA (and PFA-100) assays of Example 3
Excerpt: The effectiveness of various aptamers in blocking vWF function in several biological assays is described in this Example.
In one assay botrocetin is used. Botrocetin, a protein isolated from snake venom, is known to induce von Willebrand Factor binding to the gpib receptor on live and fixed platelets. This reaction causes agglutination of suspensions of fixed platelets via vWF multimerization. In preparations of platelet rich plasma (hereinafter “PRP”), vWF/botrocetin induction of agglutination is followed by a second phase of platelet aggregation caused by metabolic activation of the platelets. These two reactions: vWF binding to fixed platelets and vWF mediated platelet aggregation, can be used to measure the activity of aptamers of the invention.

[2] = system: botrocetin induced platelet aggregation; assay: Inhibition of botrocetin induced platelet aggregation (BIPA) in human PRP; type: cell-based; settings: human platelet rich plasma
Procedure: In platelet rich plasma isolated from fresh human blood, botrocetin induces platelet aggregation via vWF. Platelet aggregate formation can be measured optically as an increase in % light transmittance on a Chronolog Model 490-4D Aggregometer because aggregation of platelets clarifies the plasma. Aptamers of the invention were analyzed for their ability to inhibit botrocetin induced platelet aggregation (“BIPA”) in human blood. An aptamer of the invention was considered to be active if it could prevent aggregate formation for six minutes post botrocetin addition.
In order to determine the activity of aptamers on live human platelets, BIPA assays were done using freshly prepared platelet rich plasma. Blood was obtained from healthy human donors who had not taken NSAIDS for at least five days. […] Collected blood was pooled into 15 mL conical tubes and was spun at 200 g for 20 minutes. The turbid, yellow layer of platelet rich plasma (“PRP”) was withdrawn from the tubes, pooled, and set aside at room temperature. The remaining blood was spun at 2500 g for ten minutes. The clarified layer of plasma, known as platelet poor plasma (“PPP”), was withdrawn and set aside at room temperature. PRP was aliquoted into cuvettes containing stir bars at a volume of 470 uL. A sample of 500 uL of PPP was aliquoted into a cuvette and placed in the PPP reference cell of the platelet aggregometer. Samples of PRP were prewarmed at 37 degrees C. in the platelet aggregometer for 3-5 minutes before being used in BIPA assays. First, the concentration of botrocetin needed to induce platelet aggregation for each individual donor was determined by titration. This concentration of botrocetin was used for the remainder of the experiment. Next, aptamer was assayed by adding titrations of aptamer (zero, 1 nM to 1000 nM) to prewarmed PRP for one minute, followed by addition of botrocetin. With platelet aggregation, an increase in amplitude of light transmission is seen (FIG. 8). The concentration at which platelet aggregation is blocked at 90% or greater after 6 minutes is reported in the final column of Table 26.

[3] = system: vWF dependent platelet plug formation, human whole blood; assay: PFA-100 assay, human whole blood; type: cell-based; settings: citrated human whole blood; minimum concentration that extends closing time to 300 seconds
Excerpt: Another assay of this Example, using the PFA-100 instrument, is an agonist independent but vWF dependent assay that uses the PFA-100 instrument (Harrison et al., Clin. Lab. Haem., v24, p 225-32 (2002)). The PFA-100 simulates the formation of a hemostatic plug under conditions of high shear force in vivo by recording the time required for a platelets to aggregate and block the flow of citrated whole blood through a microscopic aperture in a membrane coated with collagen and either epinephrine or ADP. This activity is von Willebrand factor dependent as high MW vWF multimers bind to immobilized collagen on the membrane and then bind to and activate platelets because of the shear force induced by drawing the blood through the microscopic aperture.
Fresh whole blood was collected from healthy non-steroidal anti-inflammatory drug (NSAID) free cynomolgus macaques. Aptamers were diluted with physiological saline from Aldon (Cat#9420306) in no-additive vacutainer tubes (Cat#366434, Becton Dickenson). Samples were loaded onto collagen/epinephrine test cartridges (Cat#B4170-20A, Dade Behring) which were used in the PFA-100 machine (Dade Behring). Trigger solution (Cat#B4170-50, Dade Behring) was used in the self-test and to pre-wet the test cartridges. O-ring cleaning pads (Cat#B4170-73, Dade Behring) were used in the self-test and in the O-ring cleaning process.
A self-test, which included an O-ring cleaning process, was always run on the PFA-100 machine before running any samples to ensure proper function of the machine.
During the entire experiment, the tubes of whole blood were gently inverted every five minutes to prevent settling.
In order to assay the titration of aptamer in whole blood, the aptamer was added to no-additive vacutainer tubes and diluted to the desired concentrations (ex: 0 nM, 1 nM to 1000 nM) using physiological saline such that the final volume was […]. When the PFA-100 was ready to run the next set of samples, 1940 μl of whole blood was added to the tube containing a concentration of aptamer. This tube was gently inverted three times to thoroughly mix the aptamer and blood. Samples were always run in duplicate on the PFA-100 machine. 800 μl of this blood mixture was loaded into the collagen/epinephrine test cartridges. The test cartridges were loaded onto the PFA-100 machine. The time of occlusion of the aperture was measured by the PFA-100, with a maximal time of 300 seconds. We estimate the IC95 in this assay to be the minimum concentration of aptamer that extends the closing time to 300 seconds.

[4] = pharmacokinetics after 3 mg/kg IV in cynomolgus macaques (Oligreen, HPLC); type: in vivo; settings: cynomolgus monkey, in vivo, iv, 3 mg/kg
Procedure: ARC1368 (SEQ ID NO 291), 1779 (SEQ ID NO 320) and 1780 (SEQ ID NO 321) (as described in Example 2 above) were injected intravenously into cynomolgus macaques (n=3/group) at a dosage of 3 mg/kg which was expected to yield an instantaneous plasma concentration of 3 uM, approximately 30-fold higher than the putative effective dose. Subsequently, citrated blood samples were collected at regular intervals and processed for plasma.
Subsequently, plasma aptamer concentrations were determined using the Oligreen assay (Gray et al., Antisense and Nucleic Acid Drug Development 7 (3):133-140 (1997). The data were subsequently analyzed using the program WinNonlin to yield the pharmacokinetic parameters listed in Tables 29 to 31 below.
Following the Oligreen assay analysis, plasma aptamer concentrations were determined for the animals dosed with ARC1779 (SEQ ID NO 320) using a validated HPLC-based assay. The HPLC data were analyzed via noncompartmental and 2-compartment analysis using the program WinNonlin.

[5] = system: full length human vWF (SEQ ID NO 7); assay: dot blot KD determination and extent of binding, full length human vWF; settings: dot blot; for Kd: 12 point protein titration, 1xDPBS plus 0.1 mg/mL BSA, room temperature, 30 minutes, read-out: full length human vWF KD;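 on all read-outs here: dot blot binding of aptamers to full length human vWF across a protein titration, incubated 30 minutes at room temperature in 1x DPBS with BSA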
[6] = system: intra-arterial thrombosis of carotid arteries; assay: cynomolgus macaque electrolytic thrombosis model; type: in vivo, cynomolgus monkeys; settings: animals treated with Reopro
Procedure: A study was performed to test the efficacy of ARC1779 (SEQ ID NO 320) in inhibiting intra-arterial thrombosis in a well documented non-human primate electrolytic thrombosis model. See, e.g., Rote et al., Stroke, 1994: 25, 1223-1233.
Each animal was anesthetized prior to surgical preparation, intubated and maintained in anesthesia with isoflurane inhalant anesthetic to effect delivered through a volume-regulated respirator. An intravenous catheter was also placed in a peripheral vein for administration of lactated Ringer's solution during the procedure.
A catheter was placed in the femoral artery of each animal for continuous monitoring of arterial blood pressure. Similarly a catheter was placed in the femoral vein for blood sample collection. Each carotid artery was instrumented with a Doppler flow probe connected to a flow meter. The flow probes were placed around the artery at a point proximal to the insertion of the intra-arterial electrode and stenosis. The stenosis was placed around each carotid artery so that the […] was reduced by approximately 50% to 60% without altering the mean […]. Blood flow in the carotid arteries was monitored and recorded continuously throughout the observation periods.
Electrolytic injury to the intimal surface of each carotid artery was accomplished via placement of an intravascular electrode. Each electrode was connected to the positive pole of a constant current device and cathode connected to a distant subcutaneous site. Continuous current was delivered to each vessel for a period of 3 hours or for 30 minutes after complete occlusion, whichever was shorter.
Once the electrodes were placed on the right carotid artery (“RCA”) the animal was administered the test article as indicated in Table 32 above. Approximately 15 minutes after test article administration, the electrical current was applied at 100 μA. Blood samples and CBT measurements were collected at the time points specified in Blood Sample Collection Schedule as indicated in FIG. 31. The current was terminated ˜30 minutes after the blood flow signal remained stable at zero flow (which indicates an occlusive thrombus had been formed at the site) or after 180 minutes of electrical stimulation. Approximately 195 minutes after the test article was administered, the left carotid artery (“LCA”) had electrical current administered in a similar fashion as previously described for the RCA. After termination of all surgical procedures and sample collection each animal was euthanized.
An additional 10 cynomolgus monkeys (2.5 to 3.5 kg) were divided into treatment groups 5 to 7 and were treated according the regimen indicated in Table 33 below.
The animal procedure for each treatment group in Table 33 was conducted as reported for the animals in Example 5B.

[7] = system: rabbit vWF A1 domain (SEQ ID NO 6); assay: 3-point dot blot screen, rabbit vWF A1 domain; type: binding; settings: 3-point dot blot screen, 20 nM rabbit vWF A1 domain; ratio of fraction of aptamer bound with target protein to fraction bound without protein
How it was run: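 Rabbit vWF A1 domain binding was screened by dot blot using three conditions: no target protein, human vWF, and rabbit vWF A1 domain at 100 nM (20 nM in the screen run twice). Radiolabeled aptamer bound to nitrocellulose was quantified, and results are expressed as the ratio of bound fraction with protein to bound fraction without protein.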

full length human vWF = assay: 3-point dot blot screen, full length human vWF; type: binding; settings: 20 nM full length human vWF, ratio of fraction of aptamer bound with target protein to fraction bound without protein
How it was run: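 Unique aptamer clones tested twice by nitrocellulose dot blot with no protein, 20 nM full-length human vWF or 20 nM rabbit vWF A1 domain. Value is fraction of aptamer bound with target divided by fraction bound without protein.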

[8] = system: rabbit vWF A1 domain (SEQ ID NO 6); assay: dot blot KD determination, rabbit vWF A1 domain; type: binding; settings: dot blot, 12 point protein titration, 1xDPBS plus 0.1 mg/mL BSA, room temperature, 30 minutes
Procedure: A 12 point protein titration was used in the dot blot assay (300 nM, 100 nM, 30 nM, 10 nM, 3 nM, 1 nM, 300 pM, 100 pM, 30 pM, 10 pM, 3 pM, 0 pM) in 1×DPBS plus 0.1 mg/mL BSA at room temperature for 30 minutes.

[9] = read-out: Inhibition of full length hVWF binding in FACS assay, Average IC50

vWF, sequence (P04275 764-2813 Q852R/T1381A/D1472H): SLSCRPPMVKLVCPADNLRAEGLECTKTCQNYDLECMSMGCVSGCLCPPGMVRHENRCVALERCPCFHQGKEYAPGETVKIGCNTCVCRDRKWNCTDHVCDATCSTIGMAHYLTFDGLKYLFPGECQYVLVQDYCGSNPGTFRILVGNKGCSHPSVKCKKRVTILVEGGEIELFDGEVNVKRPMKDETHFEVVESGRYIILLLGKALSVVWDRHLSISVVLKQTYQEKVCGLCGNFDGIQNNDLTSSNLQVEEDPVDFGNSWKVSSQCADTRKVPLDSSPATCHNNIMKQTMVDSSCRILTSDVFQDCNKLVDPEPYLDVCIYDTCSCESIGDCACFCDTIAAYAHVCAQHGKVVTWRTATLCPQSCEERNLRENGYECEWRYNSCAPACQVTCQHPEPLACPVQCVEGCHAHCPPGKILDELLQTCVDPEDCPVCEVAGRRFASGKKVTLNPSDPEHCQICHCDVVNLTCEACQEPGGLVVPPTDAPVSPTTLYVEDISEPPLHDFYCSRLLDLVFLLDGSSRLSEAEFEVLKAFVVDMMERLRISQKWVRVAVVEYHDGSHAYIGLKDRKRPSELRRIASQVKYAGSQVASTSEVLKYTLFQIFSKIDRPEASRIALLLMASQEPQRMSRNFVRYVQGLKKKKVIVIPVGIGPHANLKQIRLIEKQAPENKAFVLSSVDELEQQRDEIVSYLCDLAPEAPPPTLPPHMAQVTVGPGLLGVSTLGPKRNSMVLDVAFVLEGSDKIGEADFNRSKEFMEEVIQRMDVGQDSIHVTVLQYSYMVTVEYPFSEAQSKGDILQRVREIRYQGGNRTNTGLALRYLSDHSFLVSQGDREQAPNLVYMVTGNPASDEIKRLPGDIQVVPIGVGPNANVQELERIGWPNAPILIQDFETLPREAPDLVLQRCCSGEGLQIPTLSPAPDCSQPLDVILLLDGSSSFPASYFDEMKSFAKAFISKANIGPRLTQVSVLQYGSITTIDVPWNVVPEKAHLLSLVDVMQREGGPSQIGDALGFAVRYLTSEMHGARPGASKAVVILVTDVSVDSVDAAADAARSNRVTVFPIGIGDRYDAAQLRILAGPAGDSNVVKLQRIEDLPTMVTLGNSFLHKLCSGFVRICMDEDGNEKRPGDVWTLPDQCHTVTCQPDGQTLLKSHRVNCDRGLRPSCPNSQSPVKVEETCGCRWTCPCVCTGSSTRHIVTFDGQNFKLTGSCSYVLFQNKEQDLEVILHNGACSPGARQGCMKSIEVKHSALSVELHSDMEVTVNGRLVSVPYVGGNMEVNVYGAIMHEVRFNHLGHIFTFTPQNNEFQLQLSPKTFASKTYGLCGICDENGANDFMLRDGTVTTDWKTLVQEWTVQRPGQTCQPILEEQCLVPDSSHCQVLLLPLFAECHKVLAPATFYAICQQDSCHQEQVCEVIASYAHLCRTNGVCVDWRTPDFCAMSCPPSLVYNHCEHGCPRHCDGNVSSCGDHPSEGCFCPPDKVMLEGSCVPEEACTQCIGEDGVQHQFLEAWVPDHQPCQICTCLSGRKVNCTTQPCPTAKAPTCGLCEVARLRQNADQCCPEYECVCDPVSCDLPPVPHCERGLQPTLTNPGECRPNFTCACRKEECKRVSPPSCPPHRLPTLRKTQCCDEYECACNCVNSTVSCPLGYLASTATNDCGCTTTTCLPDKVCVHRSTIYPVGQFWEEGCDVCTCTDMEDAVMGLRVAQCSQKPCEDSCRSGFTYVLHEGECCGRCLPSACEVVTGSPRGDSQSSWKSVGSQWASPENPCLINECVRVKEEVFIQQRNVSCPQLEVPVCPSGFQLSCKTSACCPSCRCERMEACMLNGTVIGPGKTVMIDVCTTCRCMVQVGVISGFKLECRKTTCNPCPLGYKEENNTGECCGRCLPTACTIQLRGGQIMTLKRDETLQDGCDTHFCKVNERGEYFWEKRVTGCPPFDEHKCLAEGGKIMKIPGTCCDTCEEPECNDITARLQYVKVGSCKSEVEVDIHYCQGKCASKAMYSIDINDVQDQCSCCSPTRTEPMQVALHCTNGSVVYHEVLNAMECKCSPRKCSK
rabbit vWF A1 domain (SEQ ID NO 6), sequence (as listed by the source): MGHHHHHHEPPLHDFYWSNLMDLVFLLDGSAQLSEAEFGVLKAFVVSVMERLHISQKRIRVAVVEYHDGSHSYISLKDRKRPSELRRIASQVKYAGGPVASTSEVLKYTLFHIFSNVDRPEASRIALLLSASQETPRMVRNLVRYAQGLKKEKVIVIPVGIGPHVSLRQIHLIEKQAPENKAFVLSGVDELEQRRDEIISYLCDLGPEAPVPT

Row | Molecule | IC50 [1, 9] [pM] | activity in the cellular / biological assays (vWF) | Screen Rabbit/No Protein [7] | Screen- Human/No Protein (full length human vWF) | Kd [5] [nM] | Kd [8] [nM] | other results
1 | GGACGATCTGACTAGCTCCAGTGTTTTATCTAATAACCGTCC (DNA, backbone not given here) [SEQ ID NO 208, minimized DNA aptamer] | 4300 | demonstrated activity |  |  |  |  | 
2 | PEG40K-NH2-mGmCmGmUdGdCdAmGmUmGmCmCmUmUmCmGmGmCdCmG-s-TmGdCdGdGTmGmCdCmUdCdCmGmUdCmAmCmGmC-3T [ARC1780] |  |  |  |  |  |  | IC90 [2]: ~100 nM; ~IC95 PFA-100 (nM) with citrated human whole blood [3]: ~100 nM; AUCall, Mean [4]: 751.065 µg·h/mL; AUClast, Mean [4]: 751.065 µg·h/mL; MRTlast, Mean [4]: 10.78 h; distribution phase [4]: prolonged distribution phase; pharmacokinetic profile [4]: mainly monophasic
3 | mGmCmGmUdGdCdAmGmUmGmCmCmUmUmCmGmGmCdCmGmTmGdCdGdGTmGmCdCmUdCdCmGmUmCmAmCmGmC-3T (mGmCmGmUdGdCdAmGmUmGmCmCmUmUmCmGmGmCdCmGmTmGdCdGdGdTmGmCdCmUdCdCmGmUmCmAmCmGmC[invdT]) [ARC1525] |  | did not display activity |  |  |  |  | binding to human vWF ([5]; in words): no binding at all
4 | B1 |  |  |  |  |  |  | arteries that developed occlusive thrombi [6]: 20%
5 | B2 | 3400 | slightly more potent | 3.36 | 3.44 | 0.39 | 5.3 | IC50 ([1]; units in the cell: lower bound pM, upper bound nM, read-out: Inhibition of full length hVWF binding in FACS assay, IC50 range): 772 to 6500 pM
6 | B3 | 658 | slightly more potent | 3.46 | 3.75 | 0.33 | 6 | 
